Measured values published in the RNAGym collection of RNA variant scans (doi:10.1093/molbev/msab373).

B1: Azoarcus group I ribozyme (parent)
chain: GUGCCUUGCGCCGGGAAACCACGCAAGGGAUGGUGUCAAAUUCGGCGAAACCUAAGCGCCCGCCCGGGCGUAUGGCAACGCCGAGCCAAGCUUCGGCGCCUGCGCCGAUGAAGGUGUAGAGACUAGACGGCACCCACCUAAGGCAAACGCUAUGGUGAAGGCAUAGUCCAGGGAGUGGCGAAAGUCACACAAACCGG

Variants of: B1
Assay: reverse-splicing fitness (ratio to wild type); higher = more active; in vitro selection; Mg2+ level not given
Outline: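 An in vitro group I ribozyme library with randomized positions was T7-transcribed and gel-purified. In triplicate, 10 pmol RNA in EPPS pH 7.5 was reacted with 50 pmoles of a 30-nt RNA substrate for 1 h at 37 °C across several added MgCl2 levels (1–48 mM), then stopped with EDTA. Products were reverse transcribed from a substrate-complementary primer, PCR-amplified and sequenced (HiSeq 4000). Fitness is a variant's read proportion after selection over that before, normalised to wild type.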

Going from C82A A120G U176C to C82A A120G U176A, the reverse-splicing fitness falls from 0.0184 to 0.0137.

Going from C82A A120G U176G to C82A A120G A145U U176A, the reverse-splicing fitness rises from 0.00511 to 0.0131.

First: C82A A120G A145U U176G
Second: C82A A120G A145U U176C
The reverse-splicing fitness of the first is lower: 0.00426 for the first, 0.0146 for the second.

Compared with C82A A120U A145U C169G U176G, C82A A120U A145U C169G U176A is higher in reverse-splicing fitness: 0.00116 for the first, 0.00173 for the second.

Compared with C82A A120U A145U C169G U176C, C82A A120G A145U C150U C169A is higher in reverse-splicing fitness: 0.00254 for the first, 0.013 for the second.

Going from C82A A120G A145U C150U C169U to C82A A120G A145U C150U C169G, the reverse-splicing fitness rises from 0.0133 to 0.0173.

First: C82A A120U A145U C150U U176A
Second: C82A A120U A145U C150U U176G
The reverse-splicing fitness of the first is higher: 0.0232 for the first, 0.0066 for the second.

Going from C82A A120U A145U C150U U176C to C82A A120U A145G C150A C169A U176A, the reverse-splicing fitness falls from 0.0364 to 0.0062.

Going from C82A A120U A145G C150A C169A U176G to C82A A120U A145G C150A C169A U176C, the reverse-splicing fitness rises from 0.00236 to 0.00397.

Going from C82A A120U A145U C150A C169U U176A to C82A A120U A145U C150A C169U U176C, the reverse-splicing fitness rises from 0.00228 to 0.0026.

First: C82A A120U A145U C150A C169U U176G
Second: C82A A120G C150A C169A U176A
The reverse-splicing fitness of the first is lower: 0.00196 for the first, 0.0184 for the second.

First: C82A A120G C150A C169A U176G
Second: C82A A120G C150A C169A U176C
The reverse-splicing fitness of the first is lower: 0.00586 for the first, 0.0216 for the second.

First: C82A A120U A145C C150A C169U U176A
Second: C82A A120U A145C C150A C169U U176G
The reverse-splicing fitness of the first is higher: 0.00259 for the first, 0.00218 for the second.

First: C82A A120U A145C C150A C169U U176C
Second: C82A A120U A145U C169A U176C
The reverse-splicing fitness of the first is higher: 0.00188 for the first, 0.00182 for the second.

Going from C82A A120U A145U C169A U176G to C82A A120U A145U C169A U176A, the reverse-splicing fitness rises from 0.00177 to 0.00216.

First: C82A A120U A145U C150G
Second: C82A A120U A145U C150A
The reverse-splicing fitness of the first is higher: 0.0166 for the first, 0.0126 for the second.

Compared with C82A A120U A145U C150U, C82A A120U A145G C150U U176A is lower in reverse-splicing fitness: 0.0889 for the first, 0.0246 for the second.

Going from C82A A120U A145G C150U U176G to C82A A120U A145G C150U U176C, the reverse-splicing fitness rises from 0.00635 to 0.0478.

First: C82A A120U A145C C150G U176G
Second: C82A A120U A145C C150G U176A
The reverse-splicing fitness of the first is lower: 0.00275 for the first, 0.00523 for the second.

First: C82A A120U A145C C150G U176C
Second: C82A A120U A145U C150G U176A
The reverse-splicing fitness of the first is higher: 0.00832 for the first, 0.00533 for the second.

First: C82A A120U A145U C150G U176G
Second: C82A A120U A145U C150G U176C
The reverse-splicing fitness of the first is lower: 0.00318 for the first, 0.00823 for the second.

First: C82A A120U A145G C169G U176G
Second: C82A A120U A145G C169G U176A
The reverse-splicing fitness of the first is lower: 0.00125 for the first, 0.00295 for the second.

Going from C82A A120U A145G C169G U176C to C82A A120U A145C C150U C169U U176A, the reverse-splicing fitness falls from 0.00373 to 0.00245.

Going from C82A A120U A145C C150U C169U U176C to C82A A120U A145C C150U C169U U176G, the reverse-splicing fitness falls from 0.00257 to 0.00212.

First: C82A A120G A145U C169U U176G
Second: C82A A120G A145U C169U U176C
The reverse-splicing fitness of the first is lower: 0.00329 for the first, 0.0169 for the second.

First: C82A A120G A145U C169U U176A
Second: C82A A120G C150G U176A
The reverse-splicing fitness of the first is higher: 0.02 for the first, 0.00568 for the second.

Going from C82A A120G C150G U176G to C82A A120G C150G U176C, the reverse-splicing fitness rises from 0.00336 to 0.00829.

Compared with C82A A120G C169G U176G, C82A A120G C169G U176A is higher in reverse-splicing fitness: 0.00368 for the first, 0.0203 for the second.

First: C82A A120G C169G U176C
Second: C82A A120U A145U C150A C169A
The reverse-splicing fitness of the first is higher: 0.0274 for the first, 0.00213 for the second.

First: C82A A120U A145U C150A C169G
Second: C82A A120U A145U C150A C169U
The reverse-splicing fitness of the first is lower: 0.00217 for the first, 0.00267 for the second.

C82A A120G C150A C169G and C82A A120G C150A C169U are the same in reverse-splicing fitness: 0.0102 for the first, 0.0102 for the second.

First: C82A A120G C150A C169A
Second: C82A A120U C150A U176A
The reverse-splicing fitness of the first is higher: 0.011 for the first, 0.00729 for the second.

First: C82A A120U C150A U176C
Second: C82A A120U C150A U176G
The reverse-splicing fitness of the first is higher: 0.00899 for the first, 0.00257 for the second.

Going from C82A A120U A145U C150G C169G to C82A A120U A145U C150G C169U, the reverse-splicing fitness rises from 0.00265 to 0.00321.

First: C82A A120U A145U C150G C169A
Second: C82A A120U C150G
The reverse-splicing fitness of the first is lower: 0.00305 for the first, 0.0131 for the second.

First: C82A A120U C150A
Second: C82A A120G A145U C169G U176A
The reverse-splicing fitness of the first is higher: 0.016 for the first, 0.0118 for the second.

Going from C82A A120G A145U C169G U176C to C82A A120G A145U C169G U176G, the reverse-splicing fitness falls from 0.0144 to 0.00322.

First: C82A A120U C150A C169U
Second: C82A A120U C150A C169A
The reverse-splicing fitness of the first is lower: 0.00372 for the first, 0.0042 for the second.

First: C82A A120U C150A C169G
Second: C82A A120U A145U C150U C169G U176C
The reverse-splicing fitness of the first is higher: 0.00417 for the first, 0.00288 for the second.

Going from C82A A120U A145U C150U C169G U176G to C82A A120U A145U C150U C169G U176A, the reverse-splicing fitness rises from 0.00197 to 0.00257.

Going from C82A A120G A145U C150G C169G U176G to C82A A120G A145U C150G C169G U176C, the reverse-splicing fitness rises from 0.00378 to 0.00552.

Work on C82A A120G A145U C150G C169G U176A yielded a reverse-splicing fitness of 0.0066.
